Earlier results as cited in publication PMC2790341.

How the values were obtained:
NRP1 (Homo sapiens) = NRP1 (Homo sapiens) (UniProt O14786)
VEGFR1 (Homo sapiens) = VEGFR1 (Homo sapiens) (UniProt P17948)
VEGFR2 (Homo sapiens) = VEGFR2 (Homo sapiens) (UniProt P35968)
Sequence of UniProt P35968 (P35968 20-1356): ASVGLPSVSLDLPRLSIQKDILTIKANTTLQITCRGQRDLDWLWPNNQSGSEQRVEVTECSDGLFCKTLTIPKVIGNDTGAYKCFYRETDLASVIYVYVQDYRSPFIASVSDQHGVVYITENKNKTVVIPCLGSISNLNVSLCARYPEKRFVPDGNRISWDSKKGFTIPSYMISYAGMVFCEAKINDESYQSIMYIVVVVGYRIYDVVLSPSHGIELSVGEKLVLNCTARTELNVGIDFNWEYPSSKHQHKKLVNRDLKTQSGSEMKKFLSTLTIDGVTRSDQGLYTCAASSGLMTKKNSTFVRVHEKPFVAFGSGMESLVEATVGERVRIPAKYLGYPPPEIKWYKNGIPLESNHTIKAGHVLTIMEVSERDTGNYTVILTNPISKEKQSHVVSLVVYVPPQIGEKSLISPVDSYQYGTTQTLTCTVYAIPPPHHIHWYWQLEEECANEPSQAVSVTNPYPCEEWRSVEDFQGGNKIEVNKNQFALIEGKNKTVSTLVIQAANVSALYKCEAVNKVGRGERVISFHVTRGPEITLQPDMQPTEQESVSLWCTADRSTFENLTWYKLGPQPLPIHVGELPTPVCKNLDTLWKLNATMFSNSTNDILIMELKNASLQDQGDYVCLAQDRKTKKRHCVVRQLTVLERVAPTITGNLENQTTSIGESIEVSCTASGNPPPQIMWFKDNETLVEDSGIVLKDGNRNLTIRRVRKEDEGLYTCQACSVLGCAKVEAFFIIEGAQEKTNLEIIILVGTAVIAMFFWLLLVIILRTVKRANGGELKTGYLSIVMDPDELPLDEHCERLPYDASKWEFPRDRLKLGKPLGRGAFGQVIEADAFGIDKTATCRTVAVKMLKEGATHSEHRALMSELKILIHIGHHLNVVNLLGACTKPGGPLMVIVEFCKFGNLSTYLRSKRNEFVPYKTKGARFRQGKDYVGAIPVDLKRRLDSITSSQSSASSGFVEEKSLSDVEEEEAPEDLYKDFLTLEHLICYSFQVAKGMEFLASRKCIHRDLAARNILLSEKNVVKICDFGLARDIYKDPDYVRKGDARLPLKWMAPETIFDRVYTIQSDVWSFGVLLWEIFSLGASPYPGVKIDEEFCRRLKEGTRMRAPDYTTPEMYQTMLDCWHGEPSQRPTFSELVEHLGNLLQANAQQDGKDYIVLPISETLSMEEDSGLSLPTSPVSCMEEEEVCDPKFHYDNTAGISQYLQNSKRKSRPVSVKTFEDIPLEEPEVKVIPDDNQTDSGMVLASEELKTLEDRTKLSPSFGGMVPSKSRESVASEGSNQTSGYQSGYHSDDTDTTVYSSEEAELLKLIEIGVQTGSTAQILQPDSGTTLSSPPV

Sequence of UniProt P17948 (P17948 27-1338): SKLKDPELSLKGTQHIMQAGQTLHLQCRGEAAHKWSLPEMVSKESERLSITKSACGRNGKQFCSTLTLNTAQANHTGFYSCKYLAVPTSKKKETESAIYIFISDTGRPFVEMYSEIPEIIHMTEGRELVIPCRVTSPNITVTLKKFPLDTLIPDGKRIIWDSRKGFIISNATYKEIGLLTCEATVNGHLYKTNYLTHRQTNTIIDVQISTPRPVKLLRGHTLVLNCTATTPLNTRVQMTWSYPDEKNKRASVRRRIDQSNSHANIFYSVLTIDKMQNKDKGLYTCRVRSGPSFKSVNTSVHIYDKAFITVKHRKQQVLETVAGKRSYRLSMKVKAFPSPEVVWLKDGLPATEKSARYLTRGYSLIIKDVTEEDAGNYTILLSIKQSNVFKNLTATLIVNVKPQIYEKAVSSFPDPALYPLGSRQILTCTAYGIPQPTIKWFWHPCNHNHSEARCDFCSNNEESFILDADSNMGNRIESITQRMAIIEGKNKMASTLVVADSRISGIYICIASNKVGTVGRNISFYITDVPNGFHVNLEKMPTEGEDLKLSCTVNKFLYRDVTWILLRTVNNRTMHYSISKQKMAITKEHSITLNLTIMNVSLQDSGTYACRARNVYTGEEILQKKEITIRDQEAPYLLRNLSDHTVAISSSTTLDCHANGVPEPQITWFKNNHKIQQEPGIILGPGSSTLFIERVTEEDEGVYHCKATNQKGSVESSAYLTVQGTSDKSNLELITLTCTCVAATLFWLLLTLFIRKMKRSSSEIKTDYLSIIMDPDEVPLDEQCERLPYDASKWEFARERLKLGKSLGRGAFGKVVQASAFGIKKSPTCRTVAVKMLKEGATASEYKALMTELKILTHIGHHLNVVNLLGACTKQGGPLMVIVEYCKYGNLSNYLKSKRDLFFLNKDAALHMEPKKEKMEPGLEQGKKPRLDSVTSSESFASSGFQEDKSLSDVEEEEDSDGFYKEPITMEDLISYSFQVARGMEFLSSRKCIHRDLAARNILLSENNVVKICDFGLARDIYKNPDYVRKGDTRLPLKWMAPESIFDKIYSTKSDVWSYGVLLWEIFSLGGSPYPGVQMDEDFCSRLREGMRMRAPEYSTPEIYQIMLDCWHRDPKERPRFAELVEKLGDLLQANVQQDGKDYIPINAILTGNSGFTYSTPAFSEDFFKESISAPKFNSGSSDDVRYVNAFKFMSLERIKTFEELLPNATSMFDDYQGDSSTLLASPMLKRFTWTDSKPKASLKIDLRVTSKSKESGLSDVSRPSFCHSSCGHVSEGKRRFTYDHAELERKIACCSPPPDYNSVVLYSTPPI
Sequence of UniProt O14786 (O14786 22-923): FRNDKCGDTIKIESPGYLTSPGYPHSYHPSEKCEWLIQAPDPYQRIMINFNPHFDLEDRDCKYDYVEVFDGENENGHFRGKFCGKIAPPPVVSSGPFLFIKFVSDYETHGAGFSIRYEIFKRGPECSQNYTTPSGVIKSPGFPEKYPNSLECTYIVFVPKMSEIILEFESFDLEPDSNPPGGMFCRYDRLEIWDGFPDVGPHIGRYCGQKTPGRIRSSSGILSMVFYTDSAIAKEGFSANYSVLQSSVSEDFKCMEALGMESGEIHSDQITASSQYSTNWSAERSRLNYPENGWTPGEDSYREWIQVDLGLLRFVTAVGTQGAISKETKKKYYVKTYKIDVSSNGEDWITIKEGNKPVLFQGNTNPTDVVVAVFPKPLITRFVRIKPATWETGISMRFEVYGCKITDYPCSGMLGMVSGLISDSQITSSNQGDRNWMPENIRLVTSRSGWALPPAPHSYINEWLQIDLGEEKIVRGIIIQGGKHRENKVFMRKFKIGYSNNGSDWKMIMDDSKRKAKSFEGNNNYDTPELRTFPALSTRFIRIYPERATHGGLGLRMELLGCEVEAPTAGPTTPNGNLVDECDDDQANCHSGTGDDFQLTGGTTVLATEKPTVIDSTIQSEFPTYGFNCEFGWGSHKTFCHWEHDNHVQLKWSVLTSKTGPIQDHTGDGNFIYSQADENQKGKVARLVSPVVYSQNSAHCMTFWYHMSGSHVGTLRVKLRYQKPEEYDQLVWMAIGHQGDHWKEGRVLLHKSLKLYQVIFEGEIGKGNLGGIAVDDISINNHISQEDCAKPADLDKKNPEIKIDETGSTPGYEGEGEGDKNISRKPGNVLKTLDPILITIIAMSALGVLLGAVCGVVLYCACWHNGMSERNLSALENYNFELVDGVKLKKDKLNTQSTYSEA

Kd (NRP1 (Homo sapiens))	Kd (VEGFR1 (Homo sapiens))	Kd (VEGFR2 (Homo sapiens))	Substance
0.312 nM	–	–	VEGF165 (from UniProt P15692)
–	0.033 nM	0.1 nM	VEGF (from UniProt P15692)
